Measured values taken from patent US20090317414A1 (4G VACCINES, published 2009).

B1: soluble H-2K^b (soluble extracellular domains; heavy chain residues 1-274 with C-terminal His-tag and β2-microglobulin residues 1-99) (other)
chain: GPHSLRYFVTAVSRPGLGEPRYMEVGYVDDTEFVRFDSDAENPRYEPRARWMEQEGPEYWERETQKAKGNEQSFRVDLRTLLGYYNQSKGGSHTIQVISGCEVGSDGRLLRGYQQYAYDGCDYIALNEDLKTWTAADMAALITKHKWEQAGEAERLRAYLEGTCVEWLRRYLKNGNATLLRTDSPKAHVTHHSRPEDKVTLRCWALGFYPADITLTWQLNGEELIQDMELVETRPAGDGTFQKWASVVVPLGKEQYYTCHVYHQGLPEPLTLRWEPPPSTVSNM

Experiments:
[1] = molecular target: SEV9 ([…]), Sendai virus NP324-332 (Sendai virus); experiment: inhibition assay with soluble H-2K^b, 4° C.
[2] = molecular target: SEV9 ([…]), Sendai virus NP324-332 (Sendai virus); experiment: inhibition assay with soluble H-2K^b, 23° C.
[3] = molecular target: SEV9 ([…]), Sendai virus NP324-332 (Sendai virus); experiment: inhibition assay with soluble H-2K^b, 37° C.
[4] = molecular target: B1; experiment: inhibition assay with soluble H-2K^b, 4° C.
[5] = molecular target: B1; experiment: inhibition assay with soluble H-2K^b, 23° C.
[6] = molecular target: B1; experiment: inhibition assay with soluble H-2K^b, 37° C.
[7] = molecular target: T1, MHC class I H-2K^b on RMA-S cells (C57BL/6 TAP2-deficient cells) (mouse, UniProt P01887 21-119; P01901 22-369); experiment: peptide stabilisation assay on RMA-S cells, flow cytometry with anti-H-2K^b
T1 construct: whole, on cells; Cell surface H-2K^b stabilised by added peptide and detected with anti-H-2K^b antibody HB-158
T1 sequence (MHC heavy, looked up): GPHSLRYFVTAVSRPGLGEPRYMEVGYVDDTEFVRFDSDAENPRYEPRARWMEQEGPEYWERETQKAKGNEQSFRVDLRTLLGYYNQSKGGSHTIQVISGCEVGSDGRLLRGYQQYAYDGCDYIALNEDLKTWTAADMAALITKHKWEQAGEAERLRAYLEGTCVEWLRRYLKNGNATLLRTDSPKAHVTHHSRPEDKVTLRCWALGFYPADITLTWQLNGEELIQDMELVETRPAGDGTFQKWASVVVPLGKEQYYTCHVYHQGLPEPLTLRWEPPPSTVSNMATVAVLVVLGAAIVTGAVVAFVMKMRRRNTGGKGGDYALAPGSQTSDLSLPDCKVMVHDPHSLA
T1 sequence (b2m, looked up): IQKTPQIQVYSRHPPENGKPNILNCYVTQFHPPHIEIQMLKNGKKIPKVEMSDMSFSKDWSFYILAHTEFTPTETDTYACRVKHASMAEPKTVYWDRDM
Experimental: MHC class I molecules in the murine cell line RMA-S (C57BL/6 TAP2-deficient cells) can be used to measure the direct binding of peptides to class I molecules in vitro. […] The cells were washed once again and 100 μl (1:500 dilution) of FITC-conjugated sheep (Fab′)₂ anti-mouse immunoglobulin was added and incubated for 45 min at 4° C.; after further washing, cells were analyzed by FACScan.

[8] = molecular target: B1; experiment: inhibition assay with soluble H-2K^b, 23° C. and 37° C.
[9] = molecular target: B1; experiment: inhibition assay with soluble H-2K^b, 23° C.; remark: listed apart in the source

Binder	Kd [1]	Kd [2]	Kd [3]	Kd [4]	Kd [5]	Kd [6]	peptide concentration that stabilised H-2K^b [7]	fold increase in affinity against MUC1-8 [8]	fold increase in affinity against MUC1-8 [9]
B1	5 nM	3 nM	30 nM						
SAPDTRPA (Synthetic peptide, purity >95%; also called MUC1-8 peptide; parent non-canonical peptide MUC1-8) [MUC1-8 (SAPDTRPA)]				433 nM	877 nM	37000 nM	> 100000 nM		
SAPDFRPA (Synthetic peptide) [MUC1-8-5F (SAPDFRPA)]				460 nM	130 nM	4900 nM	> 100 nM	≥ 7 fold	
SAPDTRPL (Synthetic peptide) [MUC1-8-8L (SAPDTRPL)]				150 nM	250 nM	8900 nM	> 1000 nM	≥ 3 fold	
SAPDFRPL (Synthetic peptide) [MUC1-8-5F8L (SAPDFRPL)]				160 nM	60 nM	300 nM	> 1 nM		14 fold
SIINFEKL [OVA8 (SIINFEKL), Chicken ovalbumin257-264]				6 nM	10 nM	82 nM			
